According to patent US20230184787:

Biological target: T1, full-length human calprotectin (heterodimer of S100A9 and S100A8), P06702
T1 chain 1: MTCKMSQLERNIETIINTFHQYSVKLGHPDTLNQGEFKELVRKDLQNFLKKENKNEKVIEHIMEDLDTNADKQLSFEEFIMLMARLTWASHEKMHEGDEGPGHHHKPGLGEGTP
T1 chain 2: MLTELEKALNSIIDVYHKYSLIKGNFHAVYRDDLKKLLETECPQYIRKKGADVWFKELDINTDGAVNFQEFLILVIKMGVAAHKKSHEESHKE

B1: human neutrophil elastase (protein)
chain: IVGGRRARPHAWPFMVSLQLRGGHFCGATLIAPNFVMSAAHCVANVNVRAVRVVLGAHNLSRREPTRQVFAVQRIFENGYDPVNLLNDIVILQLNGSATINANVQVAQLPAQGRRLGNGVQCLAMGWGLLGRNRGIASVLQELNVTVVTSLCRRSNVCTLVRGRQAGVCFGDSGSPLVCNGLIHGIASFVRGGCASGLYPDAFAPVAQFVNWIDSIIQ
calprotectin fragments identified by non-targeted mass spectrometry after in vitro cleavage: several neo-epitope containing calprotectin fragments were generated by HNE, from both the S100A9 and S100A8 proteins
